Measured values: article PMC11063902
Where two headings read alike, the source gives them in different places. Values belong to the substance of their own block, whether it stands above or below them.

Key:
[1] = molecular target: eIF4A•eIF4G_(711-1104)-Fl (UniProt Q04637); test: fluorescence polarisation; as a3 with 200 nM eIF3 added (subsaturating, ~50% of eIF4G-Fl bound); 20 nM eIF4G-Fl, 3 uM eIF4A, 40S subunit titrated; 0.5 mM ATP/MgCl2
[2] = molecular target: eIF4A•eIF4G_(682-1104)-Fl (UniProt Q04637); test: as above
[3] = molecular target: eIF4A•eIF4G_(711-1104)-Fl (UniProt Q04637); test: fluorescence polarisation; 20 nM eIF4G-Fl with 3 uM eIF4A, 40S subunit titrated; Binding Buffer (20 mM Tris acetate pH 7.5, 70 mM KCl, 2 mM free Mg2+, 0.1 mM spermidine, 1 mM DTT, 10% glycerol, 0.1 mg/ml BSA) with 0.5 mM ATP/MgCl2; 10 min ice, 5 min 30 °C, 10 min room temperature
[4] = molecular target: eIF4A•eIF4G_(682-1104)-Fl (UniProt Q04637); test: as above
[5] = tested on: eIF4G721-1104 (human); test: fluorescence anisotropy; settings: text gives 4.60 ± 0.47 uM; uncapped; 20 mM Tris acetate pH 7.5, 70 mM KCl, 2 mM free Mg2+ (Mg acetate), 0.1 mM spermidine, 1 mM DTT, 10% glycerol, 0.1 mg/ml …; 20 nM RNA; 30 °C for 5 min
[6] = tested on: eIF4G682-1104 (human); test: fluorescence anisotropy; settings: uncapped; 20 mM Tris acetate pH 7.5, 70 mM KCl, 2 mM free Mg2+ (Mg acetate), 0.1 mM spermidine, 1 mM DTT, 10% glycerol, 0.1 mg/ml BSA; 20 nM RNA; 30 °C for 5 min
[7] = molecular target: eIF4G_(721-1104)-Fl (S1041C) (human) (UniProt Q04637); test: fluorescence polarisation; eIF4G_(721-1104)-Fl (fluorescein at S1041C) titrated with eIF3 or eIF3-PR∗; carried out as described previously (ref. 7)
[8] = molecular target: eIF4G_(721-1104)-Fl (S1041C) (human) (UniProt Q04637); test: as above; remark: listed apart in the source

KD with 200 nM eIF3 [1]: 248 nM | KD with 200 nM eIF3 [2]: 76 nM | Kd [3]: 563 nM | Kd [4]: 129 nM
Substance: 40S ribosomal subunit (complex)

Substance: CAA-42-FL (42-mer RNA-Fl)
Kd [5]: 4600 nM | Kd [6]: 463 nM

Kd [7]: 124 nM | Kd [8]: 81 nM
Substance: eIF3 (intact multi-subunit complex) (from UniProt O15371 1-548; Q99613 1-913; O75822 1-258)

Substance: eIF3-PR∗ (eIF3 cleaved by HIV-1 PR and purified by size exclusion chromatography) (from UniProt O15371 1-114; Q99613 1-913) (complex)
Kd [7]: 75 nM | Kd [8]: 127 nM
